Laboratory results: US20020150567A1 (University of California, published 2002)

Target: T1, GST (UniProt P08515 1-218 = GST)
T1 construct: Control protein; also called GST itself
Assay: Far-Western blot with radioactively labeled probe
Excerpt: A bacterially expressed GST-GRB2 fusion protein containing a 5 amino acid RRASV heart muscle kinase site was purified and radioactively labeled with [³²P]ATP.

T1 sequence (P08515 whole entry): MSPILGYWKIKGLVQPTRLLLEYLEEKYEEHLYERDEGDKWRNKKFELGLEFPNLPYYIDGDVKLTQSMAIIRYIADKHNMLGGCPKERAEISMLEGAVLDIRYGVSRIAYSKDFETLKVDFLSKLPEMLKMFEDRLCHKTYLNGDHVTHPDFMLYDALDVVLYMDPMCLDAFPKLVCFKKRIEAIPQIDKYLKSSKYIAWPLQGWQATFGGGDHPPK

binding result: no binding
B1: p85 SH3 domain (amino acids 1-81) (other, UniProt P26450 1-81, looked up)
chain: MSAEGYQYRALYDYKKEREEDIDLHLGDILTVNKGSLVALGFSDGQEARPEDIGWLNGYNETTGERGDFPGTYVEYIGRKR
modifications: radioactively labeled
notes: range 1-81
